In the experiment the target is T1, TNFα (tumor necrosis factor alpha), soluble (UniProt P01375 77-233).
T1 construct: also called TNFa; TNF-alpha
The experiment is described as follows: co-precipitation with protein G-Sepharose, immunoblot with anti-Flag or anti-myc-HRP. From the text: The respective Fc-fusions were precipitated with protein G-Sepharose and co-precipitated soluble ligands were detected by immunoblotting with anti-Flag (Babco) or anti-myc-HRP (BMB).
A general note: A western blot detects proteins with antibodies after separation by electrophoresis.

T1 sequence (P01375 77-233 limits assumed): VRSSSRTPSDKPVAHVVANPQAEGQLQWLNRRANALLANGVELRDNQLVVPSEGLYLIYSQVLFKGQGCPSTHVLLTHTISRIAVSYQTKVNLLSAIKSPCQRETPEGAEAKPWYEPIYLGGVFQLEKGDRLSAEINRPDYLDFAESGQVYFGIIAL

B1: TRID-Fc (soluble extracellular ligand binding domain of TRID fused to the Fc portion of human immunoglobulin (IgG)) (Fc fusion)
chain: TTARQEEVPQQTVAPQQQRHSFKGEECPAGSHRSEHTGACNPCTEGVDYTNASNNEPSCFPCTVCKSDQKHKSSCTMTRDTVCQCKEGTFRNENSPEMCRKCSRCPSGEVQVSNCTSWDDIQCVEEFGANATVETPAAEETMNTSPGTPAPAAEETMNTSPGTPAPAAEETMTTSPGTPAPAAEETMTTSPGTPAPAAEETMTTSPGTPASSHY
notes: The extracellular domain is only predicted ('about 27 to about 240'); preparation is said to follow Pan et al., Science 276:111 (1997); also called Fc-extracellular domain of TRID; TNFR-5; not shown: Fc portion of human immunoglobulin (IgG)
Turning to B1, the binding result is on record as “no binding”.

For the origin of these results see patent US20030118546A1 (Human Genome Sciences, published 2003).
